Experimental data as given in US20100260765A1 (AstraZeneca / MedImmune, published 2010).
Numbering of substitutions follows the chain as printed.

B1: 30E3 (antibody, V domains shown)
VH: EVQLLESGGGLVQPGGSLRLSCAASGFTFSNYALSWVRQAPGKGLEWVSAISGSGRNTYYADSVKGRFTLSRDNSKNTLFLQMNSLRAEDTAVYYCAKASGDNWGQGTLVTVSS
VL: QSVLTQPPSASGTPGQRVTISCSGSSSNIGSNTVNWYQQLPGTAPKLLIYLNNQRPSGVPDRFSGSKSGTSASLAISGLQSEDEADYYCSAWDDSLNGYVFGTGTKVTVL
B2: 1G6 (antibody, V domains shown)
VH: EVQLLESGGGLVQPGGSLRLSCAASGFTFSSYAMSWVRQAPGKGLEWVSAISGGGGNTYYADSVKGRFTISRDNSKNTLYLQMNSLRAEDTAVYYCSKVATDYWGQGTLVTVSS
VL: QPVLTQSSSASASLGSSVKLTCTLSSGHSSYIIAWHQQQPGKAPRYLMKLEGSGSYNKGSGVPDRFSGSSSGADRYLTISNLQFEDEADYYCETWDSYTVVFGGGTKLTVL
B3: 29A11 (antibody, V domains shown)
VH: B1 VH with L34M, S35N, S54G, R56G, L70I, F80Y, S85R, N103D
VL: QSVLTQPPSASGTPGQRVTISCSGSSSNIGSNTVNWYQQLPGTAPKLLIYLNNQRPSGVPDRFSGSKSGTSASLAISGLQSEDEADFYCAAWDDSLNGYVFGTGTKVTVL
B4: 32G7 (antibody, V domains shown)
VH: EVQLVESGGGLVKPGGSLRLSCAASGFTISSYSMNWVRQAPGKGLEWVSFISSRSNYIYYADSVKGRFTISRDNAKNSLYLQMNSLRAEDTAVYYCSKDDWFEELWGQGTLVTVSS
VL: DIQMTQSPSSLSASVGDRVTITCRASQDIRNDLGWYQQKPGKAPKRLIYAASSLQSGVPSRFSGSGSGTEFTLTISSLQPEDFATYYCLQHNSFPWTFGQGTKVEIK
B5: 33B1 (antibody, V domains shown)
VH: B4 VH with I29F, S33T, S52D, N56S
VL: B4 VL with D28G, A51T, Q90H
B6: 29D4 (antibody, V domains shown)
VH: QLQLQESGPGLVKPSETLSLTCTVSGGSISSRSNYWGWIRQPPGKGLEWIGTIYYSGHTYYNPSLKSRVSISVDTSKNQFSLKLSSVTATDTALYYCARQQLVLYYFEYWGQGTLVTVSS
VL: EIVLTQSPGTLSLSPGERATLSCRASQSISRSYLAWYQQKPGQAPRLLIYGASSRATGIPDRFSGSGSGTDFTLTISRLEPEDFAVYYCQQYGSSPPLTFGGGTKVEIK

These binders were tested against T1, KDR (human, UniProt P35968 20-1356) (assay: cell-based or functional assay).
T1 sequence (P35968 20-1356): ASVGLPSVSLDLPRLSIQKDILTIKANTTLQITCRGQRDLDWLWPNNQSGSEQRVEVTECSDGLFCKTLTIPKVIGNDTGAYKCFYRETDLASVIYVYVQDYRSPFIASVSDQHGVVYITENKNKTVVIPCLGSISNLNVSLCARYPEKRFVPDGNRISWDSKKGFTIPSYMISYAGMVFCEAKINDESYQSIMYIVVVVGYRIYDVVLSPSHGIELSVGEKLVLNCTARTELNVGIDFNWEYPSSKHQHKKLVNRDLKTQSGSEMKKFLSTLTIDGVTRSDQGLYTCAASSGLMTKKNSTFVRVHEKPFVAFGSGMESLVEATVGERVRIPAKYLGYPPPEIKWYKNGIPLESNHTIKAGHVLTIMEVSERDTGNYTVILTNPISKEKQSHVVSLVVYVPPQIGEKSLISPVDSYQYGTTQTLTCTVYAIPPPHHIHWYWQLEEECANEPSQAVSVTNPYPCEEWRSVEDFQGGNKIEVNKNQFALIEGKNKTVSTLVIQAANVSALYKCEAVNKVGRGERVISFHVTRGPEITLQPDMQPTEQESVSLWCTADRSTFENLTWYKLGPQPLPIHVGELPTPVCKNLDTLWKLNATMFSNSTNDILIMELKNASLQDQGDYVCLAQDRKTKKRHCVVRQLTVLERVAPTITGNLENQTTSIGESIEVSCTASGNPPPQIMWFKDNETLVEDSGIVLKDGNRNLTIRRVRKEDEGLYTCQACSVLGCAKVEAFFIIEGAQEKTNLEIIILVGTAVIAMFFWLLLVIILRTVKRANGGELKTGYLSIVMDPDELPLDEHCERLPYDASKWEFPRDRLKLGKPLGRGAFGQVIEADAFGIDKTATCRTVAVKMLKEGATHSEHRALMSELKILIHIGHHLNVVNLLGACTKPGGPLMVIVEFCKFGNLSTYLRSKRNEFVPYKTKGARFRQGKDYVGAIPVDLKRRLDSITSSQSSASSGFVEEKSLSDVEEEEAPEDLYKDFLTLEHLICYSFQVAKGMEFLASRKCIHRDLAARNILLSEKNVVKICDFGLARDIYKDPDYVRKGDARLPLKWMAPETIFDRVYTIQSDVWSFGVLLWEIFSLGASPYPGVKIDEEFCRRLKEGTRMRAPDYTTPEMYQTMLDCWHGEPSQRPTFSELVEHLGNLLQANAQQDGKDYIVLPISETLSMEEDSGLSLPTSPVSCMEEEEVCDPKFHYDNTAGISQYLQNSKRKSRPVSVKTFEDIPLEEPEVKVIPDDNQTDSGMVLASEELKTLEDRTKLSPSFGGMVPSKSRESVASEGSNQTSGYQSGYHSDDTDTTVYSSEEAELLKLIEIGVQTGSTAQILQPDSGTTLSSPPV

| Binder | Activity at 133 nM (% Inhibition), 24-hour Pre-incubation at 37° C., Average | Activity at 133 nM (% Inhibition), 24-hour Pre-incubation at 37° C., N = 1 | Activity at 133 nM (% Inhibition), 24-hour Pre-incubation at 37° C., N = 2 |
| --- | --- | --- | --- |
| B1 | 83% | 69% | 97% |
| B2 | 36% | 25% | 47% |
| B3 | 23% | 19% | 27% |
| B4 | 57% | 36% | 77% |
| B5 | 85% | 88% | 82% |
| B6 | 80% | 75% | 85% |

Molecular target: T1, KDR
Assay: cell-based or functional assay
Remark: another data set of the same source

| Binder | % Inhibition of VEGF165-mediated 6-keto Prostaglandin F1α release at 133 nM Antibody Concentration, Average | % Inhibition of VEGF165-mediated 6-keto Prostaglandin F1α release at 133 nM Antibody Concentration, N = 1 | % Inhibition of VEGF165-mediated 6-keto Prostaglandin F1α release at 133 nM Antibody Concentration, N = 2 |
| --- | --- | --- | --- |
| B1 | 24% | 15% | 33% |
| B2 | 49% | 12% | 86% |
| B3 | 25% | 8% | 41% |
| B4 | 76% | 37% | 115% |
| B5 | 95% | 76% | 114% |
| B6 | 95% | 72% | 119% |

Molecular target: T1, KDR
Assay: cell-based or functional assay
Remark: another data set of the same source

| Binder | % of Max VEGF KDR pTyr Activity (at 133 nM antibody concentration), Average | % of Max VEGF KDR pTyr Activity (at 133 nM antibody concentration), N = 1 | % of Max VEGF KDR pTyr Activity (at 133 nM antibody concentration), N = 2 |
| --- | --- | --- | --- |
| B1 | 10% | 11% | 8% |
| B2 | 13% | 17% | 10% |
| B3 | 12% | 15% | 10% |
| B4 | 9% | 11% | 6% |
| B5 | 7% | 7% | 7% |
| B6 | 13% | 15% | 12% |

Molecular target: T1, KDR
Assay: cell-based or functional assay
Remark: another data set of the same source

| Binder | Activity at 133 nM Antibody Concentration (% Survival Inhibition), Average | Activity at 133 nM Antibody Concentration (% Survival Inhibition), N = 1 | Activity at 133 nM Antibody Concentration (% Survival Inhibition), N = 2 |
| --- | --- | --- | --- |
| B1 | -16% | -5% | -27% |
| B2 | 0% | 9% | -10% |
| B3 | -2% | 6% | -10% |
| B4 | 69% | 70% | 67% |
| B5 | 73% | 80% | 66% |
| B6 | 85% | 85% | 85% |

Molecular target: T1, KDR
Assay: cell-based or functional assay
Remark: another data set of the same source

| Binder | Activity at 133 nM (% Inhibition), 1-hour Pre-incubation at 4° C., Average | Activity at 133 nM (% Inhibition), 1-hour Pre-incubation at 4° C., N = 1 | Activity at 133 nM (% Inhibition), 1-hour Pre-incubation at 4° C., N = 2 |
| --- | --- | --- | --- |
| B1 | 33% | 29% | 37% |
| B2 | 43% | 35% | 50% |
| B3 | 32% | 30% | 33% |
| B4 | 79% | 79% | 79% |
| B5 | 87% | 86% | 88% |
| B6 | 68% | 64% | 73% |
